Among the data in patent US20060171955A1 are Percent Inhibition values, retold here.

The target of assay [1] is monoclonal antibody 1129. As to the kind of experiment: competitive ELISA; soluble A2 F inhibits 1129 binding to plate-adsorbed A2 F.
Assay [2] deals with monoclonal antibody 1129. Kind of assay: competitive ELISA; soluble A2 F inhibits 1129 binding to plate-adsorbed 248/404 F.
Assay [3] addresses monoclonal antibody 1129. As to the kind of experiment: competitive ELISA; soluble 248/404 F inhibits 1129 binding to plate-adsorbed 248/404 F.
For assay [4], the target named is monoclonal antibody 1129. Kind of assay: competitive ELISA; soluble 248/404 F inhibits 1129 binding to plate-adsorbed A2 F. On the technique in general: In an ELISA, binding on a coated surface is turned into a signal by an enzyme label.

Some results are limits rather than exact numbers.

Turning to “purified RSV fusion (F) protein from the parent A2 strain (PFP-2) (from UniProt P03420 26-574)”, the Percent Inhibition in assay [1] and in assay [2] was more than 99% throughout.
As to “purified RSV fusion (F) protein from the cold-passaged, temperature-sensitive mutant A2 strain cpts-248/404 (PFP-3) (from UniProt P03420 26-574)”, the Percent Inhibition amounted to 95.9% in assay [3] and 94.7% in assay [4].
